1 molecule from patent EP3221371B1, “MONOLITHS” (Monolythix, Inc., priority 2014, dated 2016) can be followed below.

This assay concerns alpha-lactalbumin. The assay is described as follows: Monolith mediated proteolysis with covalently grafted proteinase K, HPLC. The assay is classed as biochemical. As to conditions: 65 °C for 2 hrs plus 30 minutes; HPLC (Figure 4). The protocol:
160 mg/mL EDAC stock was dissolved in dry DMSO. 35 µL of this stock was added to 15 µL of 200 mM MES pH 7.0 and 20 µL 10mg/mL Proteinase K in PBS. The solution was added to a 20 mg disc carboxy monolith polymeric matrix (1:2:1 TEGDMA:EGDMA:HEMA plus 2.0% MAA). The disc was incubated for 1 hr at room temperature. The reaction was then quenched with 5 µL of 30 mg/mL glycine, pH 7.0 for 15 minutes at room temperature. The disc was then washed 3x in 1x PBS and held in 1X PBS for 4 days at 4 °C.
Alpha-lactalbumin substrate was dissolved at 10 mg/mL in 1x PBS. The proteinase K coupled disc was cut into equal 8 pie-shaped pieces. For each assay, one pie piece was placed point side down into a 0.5 mL microfuge tube. For each tube, 27 µL 10mg/mL lactalbumin solution or 1X PBS, 3 µL 5mM CaSO4, was added. The tubes were closed and incubated at 65 °C for 2 hrs. An additional 50 µL deionized distilled water, was added, the tubes closed, and incubated at 65 °C for an additional 30 minutes.

B1: proteinase K: Proteinase K covalently grafted with EDAC to carboxy monolith disc (1:2:1 TEGDMA:EGDMA:HEMA plus 2.0% MAA) (conjugate, UniProt P06873 106-384, looked up)
Proteinase K: AAQTNAPWGLARISSTSPGTSTYYYDESAGQGSCVYVIDTGIEASHPEFEGRAQMVKTYYYSSRDGNGHGTHCAGTVGSRTYGVAKKTQLFGVKVLDDNGSGQYSTIIAGMDFVASDKNNRNCPKGVVASLSLGGGYSSSVNSAAARLQSSGVMVAVAAGNNNADARNYSPASEPSVCTVGASDRYDRRSSFSNYGSVLDIFGPGTSILSTWIGGSTRSISGTSMATPHVAGLAAYLMTLGKTTAASACRYIADTANKGDLSNIPFGTVNLLAYNNYQA
modifications: EDAC-grafted to carboxy monolith disc
For B1, the degradation of alpha-lactalbumin result is “fully degraded”.
